The target in this experiment is T1, Recombinantly expressed fused calprotectin (His6-linker-S100A9-linker-S100A8), product code B-RCAL, BÜHLMANN … (human, UniProt P06702 1-114; P05109 1-93).
T1 construct: Bought fusion protein; also called CP; human recombinant calprotectin
T1 sequence: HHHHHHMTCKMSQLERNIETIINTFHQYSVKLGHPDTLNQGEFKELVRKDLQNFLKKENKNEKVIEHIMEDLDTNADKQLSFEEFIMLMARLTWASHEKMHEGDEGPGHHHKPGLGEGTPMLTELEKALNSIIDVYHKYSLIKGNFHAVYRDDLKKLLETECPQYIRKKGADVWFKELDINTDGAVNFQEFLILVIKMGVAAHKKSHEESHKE
The experiment can be described thus: fluorescence polarization, 20 nM fluorescent peptide, calprotectin titrated. As to the method:
The reaction mixture was incubated at 30° C. for 1 hr, and the completion of the reaction was assessed by LCMS. The reaction was stopped by addition of HCOOH (200 μL) and the cyclized peptide was lyophilized. The final purification was performed as before with a reversed-phase C18 column (X-bridge peptide BEH C18 5 μm, 300 Å, 10×250 mm, Waters) applying a flow rate of 6 mL/min and an appropriate linear gradient in 40 min. Fractions containing the desired peptide were lyophilized. The purity of the peptides was assessed by analysing around 20 μg of peptide by RP-HPLC (1260 HPLC system, Agilent) using a C18 column (ZORBAX 300SB-C18, 5 μm, 300 Å, 4.6×250 mm, Agilent). Peptides were run at a flow rate of 1 mL min⁻¹ with a linear gradient of 0-100% of solvent B over 15 min (A: 94.9% H₂O, 5% ACN and 0.1% TFA; B: 99.9% ACN and 0.1% TFA). The mass was determined by electrospray ionization mass spectrometry (ESI-MS) in positive ion mode on a single quadrupole liquid chromatography mass spectrometer (LCMS-2020, Shimadzu). […] Fluorescence anisotropy was measured on a microwell plate reader (Infinite M200Pro, Tecan), with a filter for excitation at 485 nm and emission at 535 nm. Dissociation constant (Kd) was calculated using the following equation on Prism 5 (GraphPad): […]

B1: Peptide 3 Isomer 1 (RCPECVAFPMFQCHWYCG with cross-linked neighboring cysteines) (peptide)
peptide: RCPECVAFPMFQCHWYCG
modifications: neighboring cysteines cross-linked by chemical linkers (linker not named); N-terminal 5(6)-carboxyfluorescein; synthesised on rink amide AM resin
notes: Both pairs of neighboring cysteines bridged
B1: the Kd is around 24 nM.
